According to article PMC10397247:

T1: Core_ININ-es_KEEE
T1 chain: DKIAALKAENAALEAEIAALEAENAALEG

T2: Core_IIII-es_KEKK
T2 chain: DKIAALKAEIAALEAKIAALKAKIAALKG


Assays:
[1] = target: T1, Core_ININ-es_KEEE; assay: two-hybrid library CCmax; conditions: mean of both orientations;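 note: natural log of median RNA to DNA barcode read ratio; higher means stronger binding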
[2] = target: T2, Core_IIII-es_KEKK; assay: two-hybrid library CCmax; conditions: mean of both orientations;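 note: natural log of median RNA to DNA barcode read ratio; higher means stronger binding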

Binder | interaction score [1] | interaction score [2]
DEIAALEAKNAALKAKIAALKAKNAALKG [Core_ININ-es_EKKK] | 2.37 | –
DEIAALEAKIAALKAEIAALEAEIAALEG [Core_IIII-es_EKEE] | – | 1.78
